Results published in paper PMC10628450 (Frontiers in Immunology, 2023).

Biological target: T1, NKp46-His6 (Homo sapiens, UniProt O76036)
T1 construct: recombinant human NKp46 (natural cytotoxicity receptor); soluble recombinant receptor; probably the extracellular domain; also called (rh) NKp46; recombinant NKp46-His6; source: bought: AcroBiosystems
Experiment: BLI; antibodies loaded at 5 µg/ml on anti-human-Fc (AHC) or anti-human-CH1 (FAB2G) biosensors; antigen in solution (EGFR 3.125-200 nM; NKp46 and NKp30 1.6-100 nM) in kinetics buffer (PBS, 0.1% Tween-20, 1% BSA); 25°C; 1:1 binding model
Details: both partners purified

T1 sequence (O76036 22-258): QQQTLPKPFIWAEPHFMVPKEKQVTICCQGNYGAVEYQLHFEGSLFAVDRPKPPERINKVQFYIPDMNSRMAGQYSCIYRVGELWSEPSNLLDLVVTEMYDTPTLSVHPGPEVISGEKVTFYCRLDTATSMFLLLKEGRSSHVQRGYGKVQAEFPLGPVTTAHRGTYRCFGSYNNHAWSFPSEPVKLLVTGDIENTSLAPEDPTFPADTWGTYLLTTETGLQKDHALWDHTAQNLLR

| Kd [nM] | Binder |
| --- | --- |
| 1 | Anti-NKp46 IgG (antibody, V domains shown, human IgG1 heavy chain constant region (CH1, hinge, CH2, CH3); numbers count on: EU numbering; IgG1 with LALA; also called parental monospecific anti-NKp46 antibody; anti-NKp46 LALA IgG; source: Expi293 cells, transiently transfected, purified (MabSelect); copies: 2 + 2) VH: QVQLVQSGAEVKKPGSSVKVSCKASGYTFSDYVINWVRQAPGQGLEWMGEIYPGSGTNYYNEKFKAKATITADKSTSTAYMELSSLRSEDTAVYYCARRGRYGLYAMDYWGQGTTVTVSS VL: DIQMTQSPSSLSASVGDRVTITCRASQDISNYLNWYQQKPGKAPKLLIYYTSRLHSGVPSRFSGSGSGTDFTFTISSLQPEDIATYFCQQGNTRPWTFGGGTKVEIK |
| 3.6 | Anti-NKp46_EF_H05 (bispecific antibody, V domains shown, human IgG1 heavy chain constant region from its start to the KLTV motif before the EF loop of CH3; numbers count on: EU numbering; Gly4Ser linker; anti-EGFR bovine knob H05 (from an ultralong CDR-H3); human IgG1 heavy chain constant region from the RWQQ motif after the EF loop of CH3 to its end; as the light chain of m1; IgG1 with LALA; DKS of the EF loop replaced by G4S-knob-G4S (results); …) VH: QVQLVQSGAEVKKPGSSVKVSCKASGYTFSDYVINWVRQAPGQGLEWMGEIYPGSGTNYYNEKFKAKATITADKSTSTAYMELSSLRSEDTAVYYCARRGRYGLYAMDYWGQGTTVTVSS VL: DIQMTQSPSSLSASVGDRVTITCRASQDISNYLNWYQQKPGKAPKLLIYYTSRLHSGVPSRFSGSGSGTDFTFTISSLQPEDIATYFCQQGNTRPWTFGGGTKVEIK |
| 2 | Anti-NKp46_AB_F06 (bispecific antibody, V domains shown, human IgG1 heavy chain constant region from its start to the PPSR motif before the AB loop of CH3; numbers count on: EU numbering; Gly4Ser linker; anti-EGFR bovine knob F06 (from an ultralong CDR-H3); human IgG1 heavy chain constant region from the motif after the AB loop of CH3 (printed as NGVS) to its end; as the light chain of m1; IgG1 with LALA; EEMTK of the AB loop replaced by G4S-knob-G4S; …) VH: QVQLVQSGAEVKKPGSSVKVSCKASGYTFSDYVINWVRQAPGQGLEWMGEIYPGSGTNYYNEKFKAKATITADKSTSTAYMELSSLRSEDTAVYYCARRGRYGLYAMDYWGQGTTVTVSS VL: DIQMTQSPSSLSASVGDRVTITCRASQDISNYLNWYQQKPGKAPKLLIYYTSRLHSGVPSRFSGSGSGTDFTFTISSLQPEDIATYFCQQGNTRPWTFGGGTKVEIK |
| 3 | Anti-NKp46_EF_F06 (bispecific antibody, V domains shown, human IgG1 heavy chain constant region from its start to the KLTV motif before the EF loop of CH3; numbers count on: EU numbering; Gly4Ser linker; anti-EGFR bovine knob F06 (from an ultralong CDR-H3); human IgG1 heavy chain constant region from the RWQQ motif after the EF loop of CH3 to its end; as the light chain of m1; IgG1 with LALA; DKS of the EF loop replaced by G4S-knob-G4S (results); …) VH: QVQLVQSGAEVKKPGSSVKVSCKASGYTFSDYVINWVRQAPGQGLEWMGEIYPGSGTNYYNEKFKAKATITADKSTSTAYMELSSLRSEDTAVYYCARRGRYGLYAMDYWGQGTTVTVSS VL: DIQMTQSPSSLSASVGDRVTITCRASQDISNYLNWYQQKPGKAPKLLIYYTSRLHSGVPSRFSGSGSGTDFTFTISSLQPEDIATYFCQQGNTRPWTFGGGTKVEIK |
| 3.4 | Anti-NKp46_AB_H05 (bispecific antibody, V domains shown, human IgG1 heavy chain constant region from its start to the PPSR motif before the AB loop of CH3; numbers count on: EU numbering; Gly4Ser linker; anti-EGFR bovine knob H05 (from an ultralong CDR-H3); human IgG1 heavy chain constant region from the motif after the AB loop of CH3 (printed as NGVS) to its end; as the light chain of m1; IgG1 with LALA; EEMTK of the AB loop replaced by G4S-knob-G4S; …) VH: QVQLVQSGAEVKKPGSSVKVSCKASGYTFSDYVINWVRQAPGQGLEWMGEIYPGSGTNYYNEKFKAKATITADKSTSTAYMELSSLRSEDTAVYYCARRGRYGLYAMDYWGQGTTVTVSS VL: DIQMTQSPSSLSASVGDRVTITCRASQDISNYLNWYQQKPGKAPKLLIYYTSRLHSGVPSRFSGSGSGTDFTFTISSLQPEDIATYFCQQGNTRPWTFGGGTKVEIK |
